Experimental findings from patent publication US10772928B2, “Modulation and detection of a neuronal alternative splicing regulatory network for treatment and diagnosis of neurological disorders” (The Governing Council of the University of Toronto, priority 2014, dated 2020) are described below.

The labels stand for the following.
T1: nSR100 (Mus musculus, UniProt Q8BKA3)
T1 construct: host or cells: mouse N2A cells
T1 sequence (Q8BKA3 1-608): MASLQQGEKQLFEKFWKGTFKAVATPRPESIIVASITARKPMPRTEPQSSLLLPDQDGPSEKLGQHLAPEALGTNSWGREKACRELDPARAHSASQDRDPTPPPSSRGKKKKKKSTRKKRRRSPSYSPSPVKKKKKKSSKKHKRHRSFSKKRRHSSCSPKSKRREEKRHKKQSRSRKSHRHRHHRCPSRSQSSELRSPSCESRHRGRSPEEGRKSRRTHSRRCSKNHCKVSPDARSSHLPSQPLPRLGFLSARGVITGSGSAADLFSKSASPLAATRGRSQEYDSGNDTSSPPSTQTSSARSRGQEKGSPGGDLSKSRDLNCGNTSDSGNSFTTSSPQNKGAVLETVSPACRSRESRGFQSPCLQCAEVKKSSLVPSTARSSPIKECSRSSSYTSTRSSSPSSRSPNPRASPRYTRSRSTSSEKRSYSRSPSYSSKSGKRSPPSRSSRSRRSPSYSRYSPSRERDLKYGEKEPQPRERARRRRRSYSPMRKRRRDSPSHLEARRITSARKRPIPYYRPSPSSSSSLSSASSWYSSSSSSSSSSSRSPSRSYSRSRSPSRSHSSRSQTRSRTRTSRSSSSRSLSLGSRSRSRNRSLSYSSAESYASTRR

B1: Prpf38b (protein, UniProt Q80SY5 2-542, looked up)
Pre-mRNA-splicing factor 38B: ANNSPALTGNSQPQHQAAAAVTQQQQQCGGGGGATKPAVSGKQGNVLPLWGNEKTMNLNPMILTNILSSPYFKVQLYELKTYHEVVDEIYFKVTHVEPWEKGSRKTAGQTGMCGGVRGVGTGGIVSTAFCLLYKLFTLKLTRKQVMGLITHTDSPYIRALGFMYIRYTQPPTDLWDWFESFLDDEEDLDVKAGGGCVMTIGEMLRSFLTKLEWFSTLFPRIPVPVQKNIDQQIKTRPRKIKKDGKEGIEEIDRHVERRRSRSPRRSLSPRRSPRRSRSRSHHREGHGSSSFDRELEREKERQRLEREAKEREKERRRSRSIDRGLDRRRSRSRERHRSRSRSRDRKGDRRDRDREREKENERGRRRDRDYDKERGSDRERDRERSRERSKEQRSRGDGEEKKHKEDKEDRRHRDDKKESKKKHSRSRSRERKHRSRSRNAGKRSRSRSKDKSSRHKNESKEKANKRSRSGSQGRTGSVEKRKREHSPSREKSRKRSRSQDRSHKREHNDSKDQSDRQDHQSSQSGEPESQEKEHKSKDETV
B2: Sf3a3 (protein, UniProt Q9D554 1-501, looked up)
Splicing factor 3A subunit 3: METILEQQRRYHEEKERLMDVMAKEMLTKKSTLRDQINSDHRTRAMQDRYMEVSGNLRDLYDDKDGLRKEELNAISGPNEFAEFYNRLKQIKEFHRKHPNEICVPMSVEFEELLKARENPSEEAQNLVEFTDEEGYGRYLDLHDCYLKYINLKASEKLDYITYLSIFDQLFDIPKERKNAEYKRYLEMLLEYLQDYTDRVKPLQDQNELFGKIQTDFEKKWDNGTFPGWPKETSSALTHAGAHLDLSAFSSWEELASLGLDRLKSALLALGLKCGGTLEERAQRLFSTKGKSLESLDTSLFAKNPKSKGTKRDTERNKDIAFLEAQIYEYVEILGEQRQLTHENVQRKQARTGEEREEEEEEQISESESEDEENEIIYNPKNLPLGWDGKPIPYWLYKLHGLNINYNCEICGNYTYRGPKAFQRHFAEWRHAHGMRCLGIPNTAHFANVTQIEDAVSLWAKLKLQKASERWQPDTEEEYEDSSGNVVNKKTYEDLKRQGLL
B3: Luc7l2 (protein, UniProt Q7TNC4 1-392, looked up)
Putative RNA-binding protein …: MSAQAQMRAMLDQLMGTSRDGDTTRQRIKFSDDRVCKSHLLNCCPHDVLSGTRMDLGECLKVHDLALRADYEIASKEQDFFFELDAMDHLQSFIADCDRRTEVSKKRLAETQEEISAEVAAKAERVHELNEEIGKLLAKVEQLGAEGNVEESQKVMDEVEKARAKKREAEEVYRNSMPASSFQQQKLRVCEVCSAYLGLHDNDRRLADHFGGKLHLGFIEIREKLEELKRVVAEKQEKRNQERLKRREEREREEREKLRRSRSHSKNPKRSRSREHRRHRSRSMSRERKRRTRSKSREKRHRHRSRSSSRSRSRSHQRSRHSSRDRSRERSKRRSSKERFRDQDLASRDRDRSSRDRSPRDRDRKDKKRSYESANGRSEDRRSSEEREAGEI
B4: Ccnb2 (protein, UniProt P30276 1-398, looked up)
G2/mitotic-specific cyclin-B2: MALLRRPTVSSDLKNIDTEVIPKAKSHVTIRRAVLEEIGNKVRNRTTQVAKKPQNTKVPALPTKVTNVNKQPKPTASVKPVQMEALAPKDRPPAPEDVSMKEESLCQAFSDALLCKIEDIDNEDRENPQLCSDYVKDIYQYLRQLEVLQSINPHFLDGRDINGRMRAILVDWLVQVHSKFRLLQETLYMCIAIMDRFLQAQLVCRKKLQLVGITALLLASKYEEMFSPNIEDFVYITDNAYTSSQIREMETLILKELKFELGRPLPLHFLRRASKAGEVDVEQHTLAKYLMELTLVDYDMVHYHPSQVAAAASCLSQKVLGQGKWNLKQQYYTGYMESEVLEVMQHMAKNVVKVNDNRTKFIAVKNKYASSRLLKISTIPQLNSKIIKDLASPLLGSP
B5: Csnk2a1 (protein, UniProt Q60737 1-391, looked up)
Casein kinase II subunit alpha: MSGPVPSRARVYTDVNTHRPREYWDYESHVVEWGNQDDYQLVRKLGRGKYSEVFEAINITNNEKVVVKILKPVKKKKIKREIKILENLRGGPNIITLADIVKDPVSRTPALVFEHVNNTDFKQLYQTLTDYDIRFYMYEILKALDYCHSMGIMHRDVKPHNVMIDHEHRKLRLIDWGLAEFYHPGQEYNVRVASRYFKGPELLVDYQMYDYSLDMWSLGCMLASMIFRKEPFFHGHDNYDQLVRIAKVLGTEDLYDYIDKYNIELDPRFNDILGRHSRKRWERFVHSENQHLVSPEALDFLDKLLRYDHQSRLTAREAMEHPYFYTVVKDQARMSSTSMAGGSTPVSSANMMSGISSVPTPSPLGPLAGSPVIAAANSLGIPVPAAAGAQQ
B6: Puf60 (protein, UniProt Q3UEB3 1-564, looked up)
Poly(U)-binding-splicing …: MATATIALQVNGQQGGGSEPAAAAAAAAAAVVAAGDKWKPPQGTESIKMENGQSTGTKLGLPPLTPEQQEALQKAKKYAMEQSIKSVLVKQTIAHQQQQLTNLQMAAVTMGFGDPLSPLQSMAAQRQRALAIMCRVYVGSIYYELGEDTIRQAFAPFGPIKSIDMSWDSVTMKHKGFAFVEYEVPEAAQLALEQMNSVMLGGRNIKVGRPSNIGQAQPIIDQLAEEARAFNRIYVASVHQDLSDDDIKSVFEAFGKIKSCTLARDPTTGKHKGYGFIEYEKAQSSQDAVSSMNLFDLGGQYLRVGKAVTPPMPLLTPATPGGLPPAAAVAAAAATAKITAQEAVAGAAVLGTLATPGLVSPALTLAQPLGALPQAVMAAQAPGVITGVTPARPPIPVTIPSVGVVNPILASPPTLGLLEPKKEKEEEELFPESERPEMLSEQEHMSISGSSARHMVMQKLLRKQESTVMVLRNMVDPKDIDDDLEGEVTEECGKFGAVNRVIIYQEKQGEEEDAEIIVKIFVEFSMASETHKAIQALNGRWFGGRKVVAEVYDQERFDNSDLSA
B7: Ccnb1 (protein, UniProt P24860 1-430, looked up)
G2/mitotic-specific cyclin-B1: MALRVTRNTKINAENKAKVSMAGAKRVPVTVTAASKPGLRPRTALGDIGNKVSEELQARVPLKREAKTLGTGKGTVKALPKPVEKVPVCEPEVELAEPEPEPELEHVREEKLSPEPILVDNPSPSPMETSGCAPAEEYLCQAFSDVILAVSDVDADDGADPNLCSEYVKDIYAYLRQLEEEQSVRPKYLQGREVTGNMRAILIDWLIQVQMKFRLLQETMYMTVSIIDRFMQNSCVPKKMLQLVGVTAMFIASKYEEMYPPEIGDFAFVTNNTYTKHQIRQMEMKILRVLNFSLGRPLPLHFLRRASKVGEVDVEQHTLAKYLMELSMLDYDMVHFAPSQIAAGAFCLALKILDNGEWTPTLQHYLSYSEDSLLPVMQHLAKNVVMVNCGLTKHMTVKNKYAASKHAKISTLAQLNCTLVQNLSKAVTKA

For the first experiment, the target named is T1, nSR100. Briefly: AP-MS nSR100 interaction partners from mouse N2A cells (Table 5). Format: binding. To be noted: bait Srrm4.
Excerpt: By applying affinity purification coupled to mass-spectrometry (AP-MS), several interaction nSR100 partner proteins were detected that provide insight into mechanisms of post-translational regulation of nSR100 levels.
As for B1, the “AvgP (average of the SAINT scores)” value came to 1 and the “MaxP (maximal SAINT score)” value came out at 1.

For the molecule B2, the “AvgP (average of the SAINT scores)” value is 0.99 and the “MaxP (maximal SAINT score)” value is reported as 0.99.

Take B3: the “AvgP (average of the SAINT scores)” value amounted to 1 and the “MaxP (maximal SAINT score)” value is on record as 1.

Regarding B4, the “AvgP (average of the SAINT scores)” value is 1 and the “MaxP (maximal SAINT score)” value is listed as 1.

Consider B5, for which the “AvgP (average of the SAINT scores)” value is reported as 1 and the “MaxP (maximal SAINT score)” value is 1.

As for B6, the “AvgP (average of the SAINT scores)” value turned out to be 1 and the “MaxP (maximal SAINT score)” value is given as 1.

For B7, the “AvgP (average of the SAINT scores)” value is recorded as 1 and the “MaxP (maximal SAINT score)” value turned out to be 1.

Staying with this experiment, now noted: bait Srrm4, 0.1 added to prevent division by 0.
As for B1, the “FoldChange between the prey Avg spectra of the bait and control purifications” value (“FoldChange between the prey Avg spectra” below) is recorded as 60.

For B2, the “FoldChange between the prey Avg spectra” value turned out to be 10.5.

In the case of B3, the “FoldChange between the prey Avg spectra” value was 4.33.

Consider B4, for which the “FoldChange between the prey Avg spectra” value came out at 60.

As to B5, the “FoldChange between the prey Avg spectra” value is 4.95.

As for B6, the “FoldChange between the prey Avg spectra” value is listed as 5.07.

Consider B7, for which the “FoldChange between the prey Avg spectra” value was 300.

The same experiment, now with this note: bait Srrm4, 2 replicates.
As to B1, the “AvgSpec (average number of spectra per replicate)” value worked out at 6.

On to B2, for which the “AvgSpec (average number of spectra per replicate)” value is recorded as 10.5.

Turning to B3, the “AvgSpec (average number of spectra per replicate)” value is on record as 39.

As for B4, the “AvgSpec (average number of spectra per replicate)” value came out at 6.

Turning to B5, the “AvgSpec (average number of spectra per replicate)” value worked out at 49.5.

With B6, the “AvgSpec (average number of spectra per replicate)” value stood at 73.5.

Turning to B7, the “AvgSpec (average number of spectra per replicate)” value was 30.

The experiment is the same for the next values; noted with them: bait Srrm4, biological replicate 1 (first number of the cell), AP-MS.
Consider B1, for which the “Spectra (number of spectra for the prey in the purification of the bait)” value is recorded as 6|6.

In the case of B2, the “Spectra (number of spectra for the prey in the purification of the bait)” value stood at 11.

As to B3, the “Spectra (number of spectra for the prey in the purification of the bait)” value stood at 35.

On to B4, for which the “Spectra (number of spectra for the prey in the purification of the bait)” value was found to be 4.

With B5, the “Spectra (number of spectra for the prey in the purification of the bait)” value came out at 44.

Consider B6, for which the “Spectra (number of spectra for the prey in the purification of the bait)” value worked out at 55.

On to B7, for which the “Spectra (number of spectra for the prey in the purification of the bait)” value is listed as 27.

Staying with this experiment, now noted: bait Srrm4, biological replicate 2 (second number of the cell), AP-MS.
On to B1, for which the “Spectra (number of spectra for the prey in the purification of the bait)” value is recorded as 6|6.

Turning to B2, the “Spectra (number of spectra for the prey in the purification of the bait)” value is recorded as 10.

For B3, the “Spectra (number of spectra for the prey in the purification of the bait)” value is listed as 43.

For the molecule B4, the “Spectra (number of spectra for the prey in the purification of the bait)” value amounted to 8.

For the molecule B5, the “Spectra (number of spectra for the prey in the purification of the bait)” value was found to be 55.

B6: the “Spectra (number of spectra for the prey in the purification of the bait)” value is listed as 92.

Take B7: the “Spectra (number of spectra for the prey in the purification of the bait)” value stood at 33.

Still in this experiment, the particulars now being: bait Srrm4, sum of spectra over 2 replicates.
In turn, B1 displayed a SpecSum of 12.

In the case of B2, the SpecSum is 21.

Regarding B3, the SpecSum is reported as 78.

B4 showed a SpecSum of 12.

B5 had a SpecSum of 99.

For B6, the SpecSum was 147.

Molecule B7 registered a SpecSum of 60.
